From patent US7064106B2, “Gene and use thereof” (Takeda Chemical Industries, Ltd., priority 1999, dated 2006) come the findings set out here.

Positions count from the first letter of the chain named. Where no end group is shown, it is not given here.

Experiment [1] deals with T1, binding of IRAP-His to GST-MD364N (UniProt P97629+Q9Y613).
T1 construct: to construct plasmid pET21-IRAP (1–109); made in house; host or cells: E. coli (BL21 for GST-MD36N4)
T1 sequence (Q9Y613 951-1164): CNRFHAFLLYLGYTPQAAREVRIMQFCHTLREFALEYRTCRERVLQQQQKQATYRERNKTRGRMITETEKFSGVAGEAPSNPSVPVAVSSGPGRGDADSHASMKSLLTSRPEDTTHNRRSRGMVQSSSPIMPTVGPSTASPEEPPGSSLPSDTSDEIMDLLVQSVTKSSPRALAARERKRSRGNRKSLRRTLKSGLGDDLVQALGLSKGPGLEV
T1 sequence (P97629 1-109): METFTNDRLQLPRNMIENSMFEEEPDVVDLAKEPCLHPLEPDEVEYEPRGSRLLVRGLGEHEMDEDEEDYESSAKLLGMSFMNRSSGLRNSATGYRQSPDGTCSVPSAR
Briefly: Binding inhibition test / screening of compounds that inhibit the binding of IRAP to human MD36. An excerpt: The C terminal part (partial peptide encoded by the partial base sequence of 2995–3674 from the 5′ end in SEQ ID NO:2) of SEQ ID NO:1 (full-length cDNA of MD36) was used as human MD36. This DNA fragment was inserted into pGEX expression vector (Amersham Pharmacia) to construct expression plasmid pGEX-MD36N4 capable of expressing the human MD36 partial protein in the form fused to GST (glutathione S-transferase) protein (GST-MD36N4 protein) under control of tac promoter. However, the protease recognition site in these junctions was removed by applying PCR. Using pGEX-MD36N4, E. coli BL21 was transformed and the transformants were cultured in LB medium in a conventional manner while inducing expression by IPTG. After culture, the cells collected were disrupted by sonication followed by centrifugation of the cell homogenate. As a result, most of the GST-MD36N4 protein were present in the insoluble fraction. […]
Protein-protein binding test was carried out by the procedure shown below. […] After the wells were again rinsed 3 times with TBS-T, the IRAP-His protein remained in the wells was quantitatively assayed using anti-Penta-His antibody (Qiagen, Inc.). […] IRAP-His (1.0 μg/ml) or anti-Penta-His antibody (diluted to 2000 fold) and both were added to the GST-MD364N-coated or uncoated wells, and after washing with TBS-T, the amount of His-Tag remained in the wells was quantified. […]

In a further experiment the target is T2, profilin IIL (Homo sapiens, UniProt P35080).
T2 construct: expressed in transfected cells; host or cells: Saccharomyces cerevisiae Y190
T2 sequence (P35080 1-140): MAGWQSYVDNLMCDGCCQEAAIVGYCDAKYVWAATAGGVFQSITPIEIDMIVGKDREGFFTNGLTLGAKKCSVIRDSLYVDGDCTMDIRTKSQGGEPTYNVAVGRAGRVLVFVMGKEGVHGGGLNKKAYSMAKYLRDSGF
The experiment is described as follows: Yeast two-hybrid HIS3 growth test, MD36 and profilin family. The format is cell-based. Conditions: S. cerevisiae Y190; 40 mM 3-amino-1,2,4-triazole. The procedure:
Using as a template human skeletal muscle-derived cDNA and as an enzyme Pfu polymerase (STRATAGENE), the reaction was carried out at 95° C. for 30 seconds, at 65° C. for 45 seconds and at 72° C. for 60 seconds, for 35 cycles. As a result of PCR, the DNA fragment of 745 bp was found, in addition to the DNA fragment of 423 bp or profilin II, and named profilin IIL. The base sequence for cDNA of profilin IIL is shown by SEQ ID NO:29, and the amino acid sequence of profilin II is shown by SEQ ID NO:28.
The protein-protein interaction between MD36 and the profilin family was detected by the yeast two-hybrid system. Based on pGBT9 (CLONTECH), expression plasmids were constructed to express the coding regions of profiling I (Evangelista et al., Science, 276, 118–122, 1997; Imamura et al., EMBO J., 16, 2745–2755, 1997; Tanaka, Biochem. Biophys. Res. Commun., 267, 479–481, 2000), profilin II (Schluter et al., Biohim. Biophys. Acta, 1359, 97–109, 1997), and profiling IIL in the form fused to yeast GAL4-DNA-binding domain protein under control of yeast ADH1 promoter. These plasmids were named pG-PFNI, pG-PFNII and pG-PFNIII, respectively (yeast selection marker was TRP1). […]

In a further experiment the test system is profilin I. The experiment is described as above. The format is cell-based. Conditions: S. cerevisiae Y190; 40 mM 3-amino-1,2,4-triazole. An excerpt:
(§1) The protein-protein interaction between MD36 and the profilin family was detected by the yeast two-hybrid system. Based on pGBT9 (CLONTECH), expression plasmids were constructed to express the coding regions of profiling I (Evangelista et al., Science, 276, 118–122, 1997; Imamura et al., EMBO J., 16, 2745–2755, 1997; Tanaka, Biochem. Biophys. Res. Commun., 267, 479–481, 2000), profilin II (Schluter et al., Biohim. Biophys. Acta, 1359, 97–109, 1997), and profiling IIL in the form fused to yeast GAL4-DNA-binding domain protein under control of yeast ADH1 promoter. These plasmids were named pG-PFNI, pG-PFNII and pG-PFNIII, respectively (yeast selection marker was TRP1). On the other hand, expression plasmids that express the full-length sequence (SEQ ID NO:1) of MD36, which is IRAP-BP protein, or the coding region from this N-terminus to the sequence (SEQ ID NO:33) including the proline-rich domain in the form fused to yeast […] activated domain protein under control of yeast ADH1 promoter was constructed based on pACT2 (CLONTECH), and named pACT-MD36 and pACT-MD36NT, respectively (yeast selection marker was LEU2). pG-PFNI, pG-PFNII, pG-PFNIII or, pGBT9 for control was co-transfected to yeast Saccharomyces cerevisiae Y190 together with pACT-MD36 or pACT-MD36NT, and yeast strains bearing plasmids from the two were selected on SD medium free of tryptophan and leucine. S. cerevisiae Y190 is originally a histidine auxotrophic strain but when the introduced proteins on the plasmids show the interactions, reporter gene HIS3 is expressed and the strain becomes capable of growing on a histidine-free plate. The yeast strain acquired was spread on tryptophan, leucine and histidine-free SD medium supplemented with 40 mM 3-amino-1,2,4-triazole.

The next experiment deals with T3, profilin II (Homo sapiens, UniProt P35080).
T3 construct: expressed in transfected cells; host or cells: Saccharomyces cerevisiae Y190
T3 sequence (P35080 1-140 isoform P35080-2): T2 sequence (P35080 1-140) with V109A, F112I, G123T, S130E, M131L, K133L, D137R, G139D, F140V
Described as above. Conditions: S. cerevisiae Y190; 40 mM 3-amino-1,2,4-triazole. Format: cell-based.
Source text: as §1

`O=C(O)c1cc(O)c2c(c1)[C@@H]([C@H]1c3cc(C(=O)O)cc(O)c3C(=O)c3c(OC4OC(CO)C(O)C(O)C4O)cccc31)c1cccc(OC3OC(CO)C(O)C(O)C3O)c1C2=O` (some centres unmarked) [Compound 1]: the “binding inhibition (reduced amount of His-Tag remained on the plate)” value in experiment [1] (library compound in DMSO, final concentration 1 μM) is listed as “exhibited binding inhibition”.
On to “IRAP (55–82): chemically synthesized biotinylated peptide, amino acids 55–82 from the N terminus of SEQ ID NO:11 (IRAP) (VRGLGEHEMDEDEEDYESSAKLLGMSFM; also: biotinylated; listed as Homo sapiens) [reference compound]”, for which, in experiment [1] (biotinylated IRAP (55–82) peptide added, several amounts (μg/well)), the “inhibition of the binding of IRAP-His to GST-MD364N” value was “inhibited”.

B1: MD36NT: MD36 from the N terminus to the sequence including the proline-rich domain (SEQ ID NO:33) (protein, listed as Homo sapiens)
chain: MAGGEDRGDGEPVSVVTVRVQYLEDTDPFACANFPEPRRAPTCSLDGALPLGAQIPAVHRLLGAPLKLEDCALQVSPSGYYLDTELSLEEQREMLEGFYEEISKGRKPTLILRTQLSVRVNAILEKLYSSSGPELRRSLFSLKQIFQEDKDLVPEFVHSEGLSCLIRVGAAADHNYQSYILRALGQLMLFVDGMLGVVAHSDTIQWLYTLCASLSRLVVKTALKLLLVFVEYSENNAPLFIRAVNSVASTTGAPPWANLVSILEEKNGADPELLVYTVTLINKTLAALPDQDSFYDVTDALEQQGMEALVQRHLGTAGTDVDLRTQLVLYENALKLEDGDIEEAPGAGGRRERRKPSSEEGKRSRRSLEGGGCPARAPEPGPTGPASPVGPTSSTGPALLTGPASSPVGPPSGLQASVNLFPTISVAPSADTSSERSIYKLHQTASVWAPESPPVPQSPPGQARLEARFLENVAAAETEKQVALAQGRAETLAGAMPNEAGGHPDARQLWDSPETAPAARTPQSPAPCVLLRAQRSLAPEPKEPLIPASPKAEPIWELPTRAPRLSIGDLDFSDLGEDEDQDMLNVESVEAGKDIPAPSPPLPLLSGVPPPPPLPPPPPIKGPFPPPPPLPLAAPLPHSVPDSSALPTKRKTVKLFWRELKLAGGH
On to B1, for which the “growth of yeast on tryptophan, leucine and histidine-free SD medium” value with profilin IIL was “Growth of the yeast was noted”; in the experiment with profilin I, “did not grow”; with profilin II, “did not grow”.
